Like-named read-outs stand apart in the source and are kept apart here. Blank lines part the entries; values can stand above or below the molecule they belong to.
Experiments:
integrin αvβ3 = integrin αvβ3 (Homo sapiens, UniProt P05106+P06756); assay: Competitive cell binding assay with ^125I-echistatin in U87MG cells
Dynamic PET = assay: Dynamic PET; design: species or system athymic nude mice; conditions: mouse, in vivo; for half-life: iv
[1] = Octanol-water partition coefficient; type: physicochemical
[2] = Ex vivo biodistribution at 4 h p.i.; design: species or system athymic nude mice; conditions: mouse, in vivo
[3] = Serum stability by radio-HPLC; type: in vitro ADME, mouse
[4] = Metabolic stability in urine by radio-HPLC; type: in vivo, ICR mice
[5] = Longitudinal static PET with ROI analysis in U87MG tumor-bearing mice; design: species or system athymic nude mice; conditions: mouse, in vivo
in vivo = conditions: both, athymic nude, mouse, tumor, 10 mg/kg, total radioactivity
[6] = mouse, U87MG tumor, 10 mg/kg

IC50 (integrin αvβ3): 507 ± 62 nM
SMILES: N=C(N)NCCC[C@@H]1NC(=O)[C@H](CCCCNC(=S)Nc2ccc(CC3CN(CC(=O)O)CCN(CC(=O)O)CCN3CC(=O)O)cc2)NC(=O)[C@@H](Cc2ccccc2)NC(=O)[C@H](CC(=O)O)NC(=O)CNC1=O (stereo partly drawn) [NOTA-c(RGDfK)]

SMILES: N=C(N)NCCC[C@@H]1NC(=O)[C@H](CCCCNC(=O)COCCOCCNC(=O)COCCOCCNC(=S)Nc2ccc(C[C@H]3CN(CC(=O)O)CCN(CC(=O)O)CCN3CC(=O)O)cc2)NC(=O)[C@@H](Cc2ccccc2)NC(=O)[C@H](CC(=O)O)NC(=O)CNC1=O [^64Cu-NOTA-(PEG)2-c(RGDfK), metal not drawn]
tissue uptake (Dynamic PET): ~4 %ID/g
half-life (Dynamic PET): 4.76 min
logP [1]: -2.82 ± 0.06
tissue uptake at 4 h [2]: 2.36 ± 0.31 %ID/g
fraction remaining intact in serum ([3]; mouse, serum, 4 h): > 95%
radioactive metabolites in urine ([4]; mouse, in vivo): not observed
tissue uptake at 0.5 h [5]: 3.62 ± 0.21 %ID/g

SMILES: N=C(N)NCCC[C@@H]1NC(=O)[C@H](CCCCNC(=O)[C@H]2O[C@@H](CNC(=O)[C@H]3O[C@@H](CNC(=O)[C@H]4O[C@@H](CNC(=O)[C@H]5O[C@@H](CNC(=O)CCOCCOCCOCCOCCNC(=S)Nc6ccc(C[C@H]7CN(CC(=O)O)CCN(CC(=O)O)CCN7CC(=O)O)cc6)[C@H](O)[C@@H](O)[C@H]5O)[C@H](O)[C@@H](O)[C@H]4O)[C@H](O)[C@@H](O)[C@H]3O)[C@H](O)[C@@H](O)[C@H]2O)NC(=O)[C@@H](Cc2ccccc2)NC(=O)[C@H](CC(=O)O)NC(=O)CNC1=O [^64Cu-NOTA-PEG4-SAA4-c(RGDfK), metal not drawn]
tissue uptake (Dynamic PET; 5.5 MBq): ~4 %ID/g
half-life (Dynamic PET; 5.5 MBq): 4.07 min
logP [1]: -3.4 ± 0.05
tissue uptake at 4 h ([2]; 10 mg/kg, kidney uptake, ex vivo, with blocking, 4 h p.i., blocking group, c(RGDyK) 10 mg/kg): 1.78 ± 1.04 %ID/g
tissue uptake at 4 h ([2]; 5.5 MBq, U87MG tumor uptake, ex vivo, 4 h p.i., γ-counter): 1.14 ± 0.26 %ID/g
tissue uptake at 4 h ([2]; 5.5 MBq, kidney uptake, ex vivo, 4 h p.i., positive (unblocked) group): 0.96 ± 0.12 %ID/g
fraction remaining intact in serum ([3]; 1 or 4 h incubation in mouse serum at 37°C): > 95%
tissue uptake (in vivo): 10 %ID/g
radioactive metabolites in urine ([4]; urine collected 1 h after administration): not observed
tissue uptake at 0.5 h ([5]; 5.5 MBq, U87MG tumor uptake, PET, 0.5 h p.i.): 2.5 ± 0.18 %ID/g
tissue uptake at 2 h ([5]; 5.5 MBq, U87MG tumor uptake, PET, 2 h p.i., n = 3): 1.77 ± 0.38 %ID/g
tissue uptake at 4 h ([5]; 5.5 MBq, U87MG tumor uptake, PET, 4 h p.i., n = 3): 1.67 ± 0.38 %ID/g
tissue uptake at 0.5 h [6]: 0.42 ± 0.14 %ID/g
tissue uptake at 2 h [6]: 0.24 ± 0.06 %ID/g
tissue uptake at 4 h [6]: 0.18 ± 0.03 %ID/g

SMILES: N=C(N)NCCC[C@@H]1NC(=O)[C@H](CCCCNC(=S)Nc2ccc(CC3CN(CC(=O)O)CCN(CC(=O)O)CCN3CC(=O)O)cc2)NC(=O)[C@@H](Cc2ccccc2)NC(=O)[C@H](CC(=O)O)NC(=O)CNC1=O (stereo partly drawn) [^64Cu-NOTA-c(RGDfK), metal not drawn]
half-life (Dynamic PET): 2.56 min
logP [1]: -2.65 ± 0.01
tissue uptake at 4 h [2]: 2.98 ± 0.52 %ID/g
tissue uptake at 0.5 h [5]: 4.78 ± 0.74 %ID/g

Source: PMC4591102 (European journal of nuclear medicine and molecular imaging, 2015)
